To fix the notation:
B1: His6-tagged human BicD2-CTD (aa 715–804) [human] / GST-tagged mouse Nesprin-2 (aa 6123–6421) [mouse] (parent complex)
chain 1: YENEKAMVTETMMKLRNELKALKEDAATFSSLRAMFATRCDEYITQLDEMQRQLAAAEDEKKTLNSLLRMAIQQKLALTQRLELLELDHE
chain 2: RLWQKFLDDYSRFEDWLKSAERTAACPNSSEVLYTNAKEELKRFEAFQRQIHERLTQLELINKQYRRLARENRTDTASKLKQMVHEGNQRWDNLQKRVTAILRRLRYFTNQREEFEGTRESILVWLTEMDLQLTNVEHFSESDAEDKMRQLNGFQQEITLNTNKIDQLIVFGEQLIQKSEPLDAVLIEDELEELHRYCQEVFGRVSRFHRRLTSHTPGLDDEKEASENETDIEDPREIQADSWRKRRESEEPTSPQSLCHLVPPALGHERSGCETPVSVDSIPLEWDHTGDVGGSSSHE

One experiment covers variants of B1. Description: GST-pulldown, SDS-PAGE band intensity; n = 3; parent: 1; read off a plot.
As for chain 1 YENEKAMVTETMMKLRNELKALKEDAATFSSLRAMFATRCDEYITQLDEMQRQLAAAEDEKKTLNSLLAMAIQQKLALTQRLELLELDHE [chain 1 R69A], the ratio to parent was about 0.47.
For chain 1 YENEKAMVTETMMKLRNELKALKEDAATFSSLRAMFATRCDEYITQLDEMQRQLAAAEDEKKTLNSLLRMAIQQKLALTQRLCLLELDHE [chain 1 E83C], the ratio to parent was about 0.47.

The variants in a further experiment derive from B1. The description is as above. The source holds these as a separate data set.
Consider chain 2 RLWQKFLDDYSRFEDWLKSAERTAACPNSSEVLYTNAKEELKRFEAFQRQIHERLTQLELINKQYRRLARENRTDTASKLKQMVHEGNQRWDNLQKRVTAILRRLRYFTNQREEFEGTRESILVWLTEMDLQLTNVEAFSESDAEDKMRQLNGFQQEITLNTNKIDQLIVFGEQLIQKSEPLDAVLIEDELEELHRYCQEVFGRVSRFHRRLTSHTPGLDDEKEASENETDIEDPREIQADSWRKRRESEEPTSPQSLCHLVPPALGHERSGCETPVSVDSIPLEWDHTGDVGGSSSHE [chain 2 H138A], for which the ratio to parent was about 0.29.
As to chain 2 RLWQKFLDDYSRFEDWLKSAERTAACPNSSEVLYTNAKEELKRFEAFQRQIHERLTQLELINKQYRRLARENRTDTASKLKQMVHEGNQRWDNLQKRVTAILRRLRYFTNQREEFEGTRESILAWLTEMDAQLTNVEHASESDAEDKMRQLNGFQQEITLNTNKIDQLIVFGEQLIQKSEPLDAVLIEDELEELHRYCQEVFGRVSRFHRRLTSHTPGLDDEKEASENETDIEDPREIQADSWRKRRESEEPTSPQSLCHLVPPALGHERSGCETPVSVDSIPLEWDHTGDVGGSSSHE [chain 2 V124A, chain 2 L131A, chain 2 F139A], the ratio to parent is about 0.04.
chain 2 RLWQKFLDDYSRFEDWLKSAERTAACPNSSEVLYTNAKEELKRFEAFQRQIHERLTQLELINKQYRRLARENRTDTASKLKQMVHEGNQRWDNLQKRVTAILRRLRYFTNQREEFEGTRESILVWLTEMDLQLTNVEHFSESDAEDKMRQLNGFQQEITLNTNKIDQLIVFGEQLIQKSEPLDAVLIEDELEELHRACQEVFGRVSRFHRRLTSHTPGLDDEKEASENETDIEDPREIQADSWRKRRESEEPTSPQSLCHLVPPALGHERSGCETPVSVDSIPLEWDHTGDVGGSSSHE [chain 2 Y197A]: the ratio to parent was about 0.32.
Take chain 2 RLWQKFLDDYSRFEDWLKSAERTAACPNSSEVLYTNAKEELKRFEAFQRQIHERLTQLELINKQYRRLARENRTDTASKLKQMVHEGNQRWDNLQKRVTAILRRLRYFTNQREEFEGTRESILVWLTAMDLQLTNVEHFSESDAEDKMRQLNGFQQEITLNTNKIDQLIVFGEQLIQKSEPLDAVLIEDELEELHRYCQEVFGRVSRFHRRLTSHTPGLDDEKEASENETDIEDPREIQADSWRKRRESEEPTSPQSLCHLVPPALGHERSGCETPVSVDSIPLEWDHTGDVGGSSSHE [chain 2 E128A]: the ratio to parent was about 0.81.
